Reference: the RNAGym collection of RNA variant scans (doi:10.7554/elife.80360)

B1: Hairpin Ribozyme (parent)
chain: GUCCUCUUUCACGUGCGCGUGAAAGAGAGAAGUGAACCAGAGAAACACACGUUGUGGUAUAUUACCUGGUA

Variants of: B1
Assay: self-cleavage, relative activity (ratio to wild type); higher = more cleavage; co-transcriptional

Variant | self-cleavage
A30C A35C | 0.181
G29A G51C | 0.216
G27C G69A | 0.0883
A28G U60C | 0.795
A28G U60G | 0.97
A28U C50G | 0.173
A28U C50A | 0.213
G29U C66U | 0.106
G27C U58C | 0.214
A28U A31G | 0.325
A28C U52G | 0.301
G27U A44C | 0.0839
G27U A44G | 0.193
G29U G68C | 0.137
G29U U33C | 0.165
G29U U33A | 0.169
A28C A41C | 0.625
G29A G57A | 0.141
G29A G57U | 0.0366
G27C U62A | 0.205
G27U U55G | 0.224
G27U U55C | 0.113
A28C A49C | 0.119
A28C A71U | 0.291

Variant | self-cleavage
A28C A71C | 1.05
A28C A71G | 0.457
G29U G32C | 0.105
G29U G34A | 0.0892
A30C G68U | 0.141
A30C G68C | 0.172
A28G A36U | 0.7
G29A A41U | 0.156
A28G A49C | 0.208
G27U C46U | 0.12
A30C C65G | 0.166
G29C C48U | 0.203
G29C C38A | 0.174
G27C G40U | 0.0774
G29U U53G | 0.102
A28U C46G | 0.109
A28U C46U | 0.046
G29U A45U | 0.101
G29U A45C | 0.0757
G27U U33C | 0.109
G27U U33A | 0.121
G29C U52C | 0.163
G29A A43C | 0.215
A28U G34A | 0.873

Variant | self-cleavage
A28U A39U | 0.222
A28U A39G | 0.143
A30C C50G | 0.142
A28U U52C | 0.768
A28U U52A | 0.423
G29A U62A | 0.123
G27U C48G | 0.137
G27U G56C | 0.149
G29C U67C | 0.0789
A28G U70A | 1.05
G29A G54U | 0.214
G29A G54C | 0.0856
G29U G51C | 0.167
G29A A64G | 0.0994
G29U A39C | 0.174
G29C A31C | 0.17
A30C A43G | 0
G29C A30C | 0.0921
A28U C48A | 0.131
A28U C48U | 0.251
A30C A71C | 0.592
A30C A71G | 0.247
A28U G29U | 0.0995
A28U G29C | 0.0715

Variant | self-cleavage
G29A C50U | 0.178
G27C U53A | 0.19
G27C U53G | 0.169
G29U C37A | 0.163
A28C G69C | 0.262
A28C G69A | 0.168
A28C C48U | 0.124
G27U U58C | 0.318
G29U A71U | 0.185
G29U A71G | 0.171
G29U A30G | 0.189
G29U A30U | 0.176
A30C A36C | 0.164
A30C A36G | 0.223
A30C C48A | 0.103
A28G G34C | 0.999
A28G G34U | 1.65
G29C A49C | 0.159
A28C U70A | 0.468
G29C U60G | 0.201
A28C U62A | 0.159
A28C U62G | 0.18
A28C U62C | 0.203
A28C A44G | 0.0991

Variant | self-cleavage
A28C A44C | 0.134
A28G A45U | 0.201
G29C U63C | 0.094
G29U A43U | 0.215
G29U C48G | 0.096
G27U A71G | 0.261
G27U A71U | 0.166
G29A C66A | 0.139
A28U G32A | 0.234
A28U G32C | 0.175
G29A G34U | 0.131
A30C A41U | 0.364
G29A A44U | 0.226
A28G G40U | 0.19
G29A C48G | 0.124
G29U G56A | 0.162
G29C A61C | 0.206
A28C U67C | 0.146
G29C A41G | 0.142
G29C A41C | 0.0573
A28G A35U | 1.13
G27U A35G | 0.228
G27U G51C | 0.158
G27C C46G | 0.152

Variant | self-cleavage
A30C G57A | 0.158
A30C G57C | 0.0882
A28U U62A | 0.0878
A28U U62G | 0.0982
A28U U62C | 0.272
A28C A61C | 0.122
G29C G42A | 0.13
G29C G42U | 0.11
A28C A35U | 0.295
A28C A35C | 0.864
A28C A35G | 0.445
G29A A35G | 0.147
G29A A35C | 0.187
A28U A41C | 1.13
G29A A31C | 0.129
G29A A49U | 0.122
A30C A45C | 0.126
G29U U58C | 0.18
A28G G32U | 0.0347
A28G G32A | 0.236
A28U U60C | 0.871
G29A A39C | 0.108
G29A A39G | 0.128
G27U A43U | 0.106

Variant | self-cleavage
A28C C37A | 0.166
A30C G69U | 0.124
A30C G34A | 0.0999
A30C U52G | 0.113
G29A C38A | 0.108
G29A A36G | 0.135
G29C A71G | 0.206
G29C A71C | 0.179
A28G G51C | 1.08
A28U A64G | 0.167
A28U A64U | 0.0714
A28U A64C | 0.278
A28G G69C | 0.46
A28U A59G | 0.243
A28C U53C | 0.598
G29U U52A | 0.124
G27C G32U | 0.15
A28U A36C | 0.286
A28U C38U | 0.343
G29C A43C | 0.125
A30C C66G | 0.248
G27C U60A | 0.177
G29A G56C | 0.166
